Results: patent US9504759B2, “Surface modified proteinaceous spherical particles and uses thereof” (BAR-ILAN UNIVERSITY, priority 2011, dated 2016)
Square brackets hold non-standard residues; d marks the D form. Ends that are not written are not given here. Peptide text beside a SMILES is read from it. Nle = CCCC[C@H](N)C(=O)O

Key:
[1] = target: T1, FITC-Aβ40 (Homo sapiens, UniProt P05067); assay: Direct in vitro binding assay with FITC-Aβ40 (fluorescent microscopy, FACS); conditions: soluble FITC-Aβ40 in PBS at 37° C., after extensive washing; fluorescent microscopy and FACS
T1 construct: incubated with soluble FITC-Aβ40
Description: Binding of KLVFF (SEQ ID NO 1)-modified SMOP to Aβ was assessed using a fluorescent modified Aβ known as FITC-Aβ40 (fluorescein isothiocyanate) in a direct in vitro assay. In order to confirm that the conjugated KLVFF (SEQ ID NO 1) fragments on SMOPs preserved their recognition capability to bind full length Aβ following the sonochemical process and SMOP generation, KLVFF (SEQ ID NO 1)-modified SMOPs were incubated with soluble FITC-Aβ40 (25 μ, 0.5 nanomolar, nM) in PBS at 37° C. for different periods under constant agitation (750 revolutions per minute (rpm)). At each time point, samples were diluted with cold PBS and the microspheres were washed twice with cold PBS. Ten thousand particles were then analyzed immediately by FACS.
As controls, proteinaceous SMOP without surface modification (prepared as in example 1A, without the addition of a KLVFF (SEQ ID NO 1) peptide) (naked BSA spheres) were prepared. FVKLF-modified SMOP was also prepared as a control, as in Example 1C.

[2] = target: T2, Aβ40 (Homo sapiens, UniProt P05067); assay type: biochemical; conditions: for effect on rate (kinetics) of Aβ aggregation: ThT assay monitored for three days of incubation; for effect on Aβ aggregation (ThT fluorescence): molar ratio of Aβ to peptide or peptide equivalent 1:2, 1:4, 1:6.5, SMOP BSA:KLVFF 1:500, three days, FIG. 2A
T2 construct: incubating fresh monomerized (non-aggregated) solutions of Aβ40
Description: In addition, an indirect assay (ThT [Thioflavin T] assay) was performed as follows. […] The fluorescence is measured and correlated to presence of amyloid plaque formations. Agents which bind and inhibit amyloid plaque formation decrease fluorescence of ThT. The inhibitory activity of KLVFF (SEQ ID NO 1)-modified SMOPs on Aβ40 aggregation was determined in black 96-well flat-bottom plates by incubating fresh monomerized (non-aggregated) solutions of Aβ40 (33 micromolar (μM), 15 μl)with different preparations of the SMOPs (25 μl, Table 1) in PBS. PBS was added to reach a volume of 50 μl, giving a final concentration of 10 μM for Aβ40. […] The plates were sealed with aluminum foil and incubated while shaking at 750 rpm at 37° C. for 72 hours to induce aggregation. Following the incubation, a solution of ThT (24 μM, 150 μl) in glycine buffer (50 millimolar (mM), pH 8.5) was added to each well and the fluorescence of amyloid-bound ThT was immediately measured using a plate reader (Infinite M200, Tecan, Switzerland) at excitation and emission wavelengths of 430 and 492 nm, respectively. The ThT solution was freshly prepared by diluting a ThT stock solution (1 mM, in water) with glycine buffer (50 mM, pH 8.5). Experiments were performed in quadruplicate.
To evaluate the inhibitory effect of KLVFF (SEQ ID NO 1)-modified SMOPs on Aβ aggregation and kinetics, soluble Aβ40 (0.5 nanomol, nmol) was incubated in the absence and presence of different preparations of the SMOPs. Amyloid plaque formation was then monitored by a ThT assay for three days of incubation.

[3] = target: T2, Aβ40; assay: TEM analysis of samples taken from the ThT assay; assay type: biochemical; conditions: 72 hour incubation
[4] = test system: PC12 cells; assay: Reduction of Aβ-induced toxicity in PC12 cells (MTT assay); assay type: cell-based, rat; conditions: for effect on toxicity of aggregated Aβ in PC12 cells (cell viability, MTT): agent:Aβ40 4:1 (2 nmol : 0.5 nmol), aged 48 hours, cells 24 hours, FIG. 2B
Description: Prior to the addition of the SMOPs or soluble peptides to the cells, the extent of Aβ40 aggregation in each sample was determined by ThT assay as described above. On the day of the experiment, the medium was replaced with fresh medium (50 μl) and the aged samples (50 μ) were then diluted by a factor of two in the medium. Control wells received PBS (50 μl) only. Cells were incubated for an additional 24 hours and cell viability was then determined by the MTT assay as described above. Each experiment was performed in quadruplicate and repeated three times.

[5] = Administration of SMOP to rats to demonstrate safety; assay type: in vivo; conditions: intravenously via tail vein, from 100 μl to highest amount 200 µL, observed 2 weeks; BSA:KLVFF 1:500
Description: SMOPs modified with KLVFF (SEQ ID NO 1) (ratio of BSA:KLVFF (SEQ ID NO 1) of 1:500) were used in vivo for toxicological studies. Rats weighing about 250 g each were injected intravenously, via their tail vein, with increasing amounts of the SMOP starting from 100 μl and following an up-down protocol based on the outcome of the initial dose.

[6] = test system: murine microglia (BV-2) cells; assay: Phagocytosis by murine microglia (BV-2) cells (confocal microscopy, SEM, FACS); assay type: cell-based; conditions: LPS-treated cells, 30 minutes exposure

T2 sequence (P05067 672-711 limits assumed): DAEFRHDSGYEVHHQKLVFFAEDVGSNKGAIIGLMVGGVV
T1 sequence (P05067 672-711 limits assumed): as above

Compound	FITC-Aβ40 accumulated on the surface of the particles (fluorescent signal) [1]	effect on rate (kinetics) of Aβ aggregation [2]	effect on Aβ aggregation (ThT fluorescence) [2]	formation of Aβ40 fibrils (TEM) [3]	effect on toxicity of aggregated Aβ in PC12 cells (cell viability, MTT) [4]	effect on uptake of aggregated FITC-Aβ by BV-2 cells [6]	further results
KLVFF-modified SMOP: oil-filled spherical BSA particles with KLVFFC-NH2 (SEQ ID NO 3) attached via disulfide bonds, prepared by sonication	intense fluorescent signals	dramatically slowed the rate of Aβ aggregation	significantly decreased the aggregation of Aβ in a dose-dependent manner	completely arrests the formation of fibrils	significantly reduced	–	immediate toxicity in rats [5]: did not cause immediate toxicity
FVKLF-modified SMOPs: SMOPs formed with scrambled peptide FVKLFC-NH2 (SEQ ID NO 4); comparator in in vitro studies	significantly lower amount of FITC-Aβ40 was accumulated	no or little effect	no or little effect	no inhibitory effect	–	–	–
fucoidan	–	–	–	–	–	reduced the uptake of the aggregated Aβ	–
KLVFF-NH2	–	–	–	–	little or no effect on toxicity	–	–
pertussis toxin [PTX]	–	–	–	–	–	reduced the uptake of the aggregated Aβ	–
CCCC[C@@H]1NC(=O)[C@@H](CC(C)C)NC(=O)[C@H](CCCCN)NC(=O)[C@@H](CO)NC(=O)[C@H](Cc2c[nH]cn2)NC(=O)[C@@H](Cc2c[nH]c3ccccc23)NC1=O [[lJwHsK], Cyclo-D-leucine-L-noreucine-D-tryptophan-L-histidine-D-serine-L-lysine] (cyclo(K[dL][Nle][dW]H[dS]))	–	–	–	–	–	–	effect on amyloid aggregation / formation (in words) [2]: drastic effect on amyloid aggregation; reduction of Aβ-induced toxicity in PC12 cells (cyclic peptide) [4]: effective in reducing Aβ-induced toxicity
